# B1: TEV-protease (New England Biolabs, includes a HIS-tag) (protein)
# chain: GESLFKGPRDYNPISSTICHLTNESDGHTTSLYGIGFGPFIITNKHLFRRNNGTLLVQSLHGVFKVKNTTTLQQHLIDGRDMIIIRMPKDFPPFPQKLKFREPQREERICLVTTNFQTKSMSSMVSDTSCTFPSSDGIFWKHWIQTKDGQCGSPLVSTRDGFIVGIHSASNFTNTNNYFTSVPKNFMELLTNQEAQQWVSGWRLNADSVLWGGHKVFMSKPEEPFQPVKEATQLMNELVYSQ
# Target: Uncleaved SARS-CoV-2 3CLpro (N-terminal 6xHIS-tag followed by TEV-protease cleavage site)
protein,measurement,value
B1,"cleavage of the HIS-tag, SDS-PAGE",Cleavage of the 3CLpro was successful

# — patent US20230090502
